Data: patent US20190202925A1

Assays:
[1] = biological target: human TNFR2 on cells (human) (UniProt P20333); assay: flow cytometry on human PBMC, antibody at 10 ug/mL, anti-human Fc-PE secondary; negative control
[2] = biological target: cynomolgus TNFR2 on cells (cynomolgus); assay: flow cytometry on cynomolgus PBMC, antibody at 10 ug/mL, anti-human Fc-PE secondary; negative control

Sequence of human TNFR2 on cells (human) (P20333 23-461): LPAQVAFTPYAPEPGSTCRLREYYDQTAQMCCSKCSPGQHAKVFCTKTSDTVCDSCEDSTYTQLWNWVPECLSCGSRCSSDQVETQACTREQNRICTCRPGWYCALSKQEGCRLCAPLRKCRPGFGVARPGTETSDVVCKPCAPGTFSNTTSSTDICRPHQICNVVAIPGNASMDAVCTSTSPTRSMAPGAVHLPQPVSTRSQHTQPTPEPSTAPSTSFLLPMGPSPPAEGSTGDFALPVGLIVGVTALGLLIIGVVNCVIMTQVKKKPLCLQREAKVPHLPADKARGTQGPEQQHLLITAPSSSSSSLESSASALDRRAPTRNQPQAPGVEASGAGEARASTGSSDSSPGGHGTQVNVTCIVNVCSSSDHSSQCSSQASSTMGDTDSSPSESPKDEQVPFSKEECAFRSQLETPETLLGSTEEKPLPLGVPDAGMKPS

In the case of “Isotype Control (Negative Control) (antibody)”, the % CD4^+ ab^+ Donor 1 [1] is reported as 0.7%, the % CD4^+ ab^+ Donor 2 [1] is reported as 0.7% and the % CD8^+ ab^+ Donor 1 [1] is reported as 0.5%. It also gave a % CD8^+ ab^+ Donor 2 [1] of 0.7%, a % CD4^+ ab^+ Donor 1 [2] of 0.2% and a % CD4^+ ab^+ Donor 2 [2] of 0.5%. The % CD8^+ ab^+ Donor 1 [2] was 0.2% and the % CD8^+ ab^+ Donor 2 [2] was 0.6%.
